Non-standard residues stand in square brackets, D forms with d. No end group written: not given here. ACPC = cyclic beta amino acid; APC = cyclic beta amino acid
Key:
AKT = AKT (Homo sapiens, UniProt P31749); details: read-out: Ki, competitive inhibition of histone H2B phosphorylation by AKT; cited from earlier work
VIPR1 = target: T1, VIPR1 (Homo sapiens, UniProt P32241); assay: cAMP Hunter cell line, HitHunter cAMP XS+ assay, agonist mode; assay type: cell-based; details: for % Activity / Mean RLU: VIPR1 cells, cAMP
T1 sequence (P32241 31-457): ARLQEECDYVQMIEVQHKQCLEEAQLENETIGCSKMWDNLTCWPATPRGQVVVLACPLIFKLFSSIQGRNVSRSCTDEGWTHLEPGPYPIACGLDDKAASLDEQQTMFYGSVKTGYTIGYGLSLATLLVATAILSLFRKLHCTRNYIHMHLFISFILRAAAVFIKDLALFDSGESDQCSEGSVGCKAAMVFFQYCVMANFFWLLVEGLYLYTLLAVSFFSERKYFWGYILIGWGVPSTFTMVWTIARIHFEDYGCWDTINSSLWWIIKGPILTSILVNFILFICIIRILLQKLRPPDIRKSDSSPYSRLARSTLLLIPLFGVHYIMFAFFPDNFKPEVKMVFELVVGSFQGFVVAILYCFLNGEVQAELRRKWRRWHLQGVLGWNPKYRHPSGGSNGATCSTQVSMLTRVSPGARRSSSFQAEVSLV
Experimental: (§1) Once it was established that the cells were healthy and growing normally, cells were passaged from flasks using cell dissociation reagent buffer and seeded into white walled clear bottom 384-well microplates for compound profiling. For profiling, cells were seeded at a density of 10,000 cells per well in a total volume of 20 μL and were allowed to adhere and recover overnight prior to compound addition. cAMP modulation was determined using the DiscoveRx HitHunter cAMP XS+ assay.
(§2) For profiling compound in agonist mode, the cells were incubated in the presence of compound at 37° C. for 30 minutes. […] After appropriate compound incubation, assay signal was generated through incubation with DiscoverX lysis cocktail according to the manufacturers standard protocol. Dose curves were plotted using GraphPad Prism or Activity Base. Percentage activity is calculated using the following formula: % Activity=100%×(mean RLU of test sample−mean RLU of vehicle control)/(mean RLU of MAX control−mean RLU of vehicle control).

VIPR2 = target: T2, VIPR2 (Homo sapiens, UniProt P41587); assay: as above; assay type: cell-based
T2 sequence (P41587 24-438): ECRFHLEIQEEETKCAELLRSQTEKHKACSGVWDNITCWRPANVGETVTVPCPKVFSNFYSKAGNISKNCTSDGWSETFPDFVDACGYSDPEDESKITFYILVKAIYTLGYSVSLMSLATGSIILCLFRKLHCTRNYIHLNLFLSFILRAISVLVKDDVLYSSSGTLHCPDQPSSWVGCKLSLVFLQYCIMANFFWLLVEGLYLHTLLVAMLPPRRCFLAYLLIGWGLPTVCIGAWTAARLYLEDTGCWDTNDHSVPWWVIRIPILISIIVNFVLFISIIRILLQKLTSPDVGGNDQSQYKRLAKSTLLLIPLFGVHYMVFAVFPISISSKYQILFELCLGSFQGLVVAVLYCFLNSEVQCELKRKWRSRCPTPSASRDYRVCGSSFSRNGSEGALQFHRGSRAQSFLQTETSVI
Experimental: as §1, §2

CRF2α = target: T3, CRF2α (Homo sapiens, UniProt Q13324); details: cited from earlier work
T3 sequence (Q13324 1-411): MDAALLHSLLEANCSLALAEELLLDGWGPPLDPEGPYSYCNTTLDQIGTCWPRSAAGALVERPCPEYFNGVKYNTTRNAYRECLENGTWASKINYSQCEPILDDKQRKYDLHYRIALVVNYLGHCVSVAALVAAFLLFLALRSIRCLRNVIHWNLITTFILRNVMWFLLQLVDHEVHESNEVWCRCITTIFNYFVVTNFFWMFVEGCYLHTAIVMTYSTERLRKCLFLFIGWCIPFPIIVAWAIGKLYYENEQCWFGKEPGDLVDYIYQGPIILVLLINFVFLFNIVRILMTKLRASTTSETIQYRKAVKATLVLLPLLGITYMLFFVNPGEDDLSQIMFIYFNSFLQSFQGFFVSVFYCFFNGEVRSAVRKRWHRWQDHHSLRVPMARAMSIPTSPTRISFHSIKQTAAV

CRF2β = target: T4, CRF2β (Homo sapiens, UniProt Q13324); details: cited from earlier work
T4 sequence (Q13324 1-438 isoform Q13324-2): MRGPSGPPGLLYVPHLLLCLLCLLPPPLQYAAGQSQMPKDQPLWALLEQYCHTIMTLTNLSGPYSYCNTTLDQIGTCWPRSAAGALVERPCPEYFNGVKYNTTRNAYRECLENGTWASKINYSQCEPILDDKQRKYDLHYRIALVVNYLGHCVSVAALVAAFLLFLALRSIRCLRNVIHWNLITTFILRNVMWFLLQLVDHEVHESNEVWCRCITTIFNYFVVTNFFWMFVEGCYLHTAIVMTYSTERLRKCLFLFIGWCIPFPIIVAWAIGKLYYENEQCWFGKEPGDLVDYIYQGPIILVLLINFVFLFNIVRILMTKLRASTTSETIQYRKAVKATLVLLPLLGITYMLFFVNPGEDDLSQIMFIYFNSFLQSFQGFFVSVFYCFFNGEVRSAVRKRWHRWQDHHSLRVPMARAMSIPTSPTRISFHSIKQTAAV

[1] = target: VIPR2 (VPAC2) receptor, cAMP Hunter cell line expressing VIPR2 (UniProt P41587); assay: cell-based or functional assay
Glucagon receptor = target: T5, Glucagon receptor (Rattus norvegicus, UniProt P30082); details: cited from earlier work
T5 construct: Enhances glucose-stimulated; from tissue; host or cells: rat liver membranes (value quoted from the literature)

[2] = target: T6, VIPR1 (VPAC1) receptor, cAMP Hunter cell line expressing VIPR1 (UniProt P32241 31-457, limits assumed); assay: cell-based or functional assay
T6 sequence (looked up): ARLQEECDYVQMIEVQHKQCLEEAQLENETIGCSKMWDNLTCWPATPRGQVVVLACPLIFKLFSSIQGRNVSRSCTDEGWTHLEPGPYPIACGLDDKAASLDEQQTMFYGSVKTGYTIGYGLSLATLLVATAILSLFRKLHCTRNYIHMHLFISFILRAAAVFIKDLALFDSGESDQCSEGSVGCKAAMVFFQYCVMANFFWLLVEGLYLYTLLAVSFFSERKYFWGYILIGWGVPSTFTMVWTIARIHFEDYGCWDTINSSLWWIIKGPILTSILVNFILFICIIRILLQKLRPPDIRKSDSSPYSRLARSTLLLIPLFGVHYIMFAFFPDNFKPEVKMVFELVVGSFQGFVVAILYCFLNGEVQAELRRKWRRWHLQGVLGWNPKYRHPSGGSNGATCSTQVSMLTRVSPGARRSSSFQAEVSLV

T5 sequence (P30082 27-485): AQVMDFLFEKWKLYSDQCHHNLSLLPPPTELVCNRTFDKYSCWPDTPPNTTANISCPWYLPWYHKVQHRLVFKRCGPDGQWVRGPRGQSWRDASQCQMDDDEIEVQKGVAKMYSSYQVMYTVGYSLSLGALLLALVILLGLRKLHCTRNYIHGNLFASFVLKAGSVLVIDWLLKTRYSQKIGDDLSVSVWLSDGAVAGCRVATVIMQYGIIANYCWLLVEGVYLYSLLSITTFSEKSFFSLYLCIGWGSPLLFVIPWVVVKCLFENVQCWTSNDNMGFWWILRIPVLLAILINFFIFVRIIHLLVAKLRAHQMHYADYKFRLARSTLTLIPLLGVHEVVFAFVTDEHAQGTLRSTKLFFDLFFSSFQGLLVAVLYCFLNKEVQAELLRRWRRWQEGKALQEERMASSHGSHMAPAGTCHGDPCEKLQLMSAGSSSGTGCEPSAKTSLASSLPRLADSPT
Sequence of AKT (P31749 whole entry): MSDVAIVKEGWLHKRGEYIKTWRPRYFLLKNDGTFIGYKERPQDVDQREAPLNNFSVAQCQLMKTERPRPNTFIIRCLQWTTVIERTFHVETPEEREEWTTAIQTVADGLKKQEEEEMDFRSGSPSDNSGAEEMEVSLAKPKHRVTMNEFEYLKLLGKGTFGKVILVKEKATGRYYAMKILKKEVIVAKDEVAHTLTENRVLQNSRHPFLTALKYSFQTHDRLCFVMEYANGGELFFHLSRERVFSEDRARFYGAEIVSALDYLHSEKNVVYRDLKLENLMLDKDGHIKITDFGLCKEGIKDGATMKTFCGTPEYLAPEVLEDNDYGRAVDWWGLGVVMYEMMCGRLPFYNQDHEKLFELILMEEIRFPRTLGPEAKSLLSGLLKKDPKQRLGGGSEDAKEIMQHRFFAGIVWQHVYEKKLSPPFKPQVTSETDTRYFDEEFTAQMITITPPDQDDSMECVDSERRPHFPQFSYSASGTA

## 5-TMR-ARKRERTYSFGHHA ({5‑TMR}-ARKRERTYSFGHHA)
AKT
  Ki: 12000 nM

## CC[C@H](C)[C@H](NC(=O)[C@H]1CCC[C@@H]1NC(=O)[C@H](CC(N)=O)NC(=O)[C@H](CC(C)C)NC(=O)[C@H](Cc1ccc(O)cc1)NC(=O)[C@H]1CNC[C@@H]1NC(=O)[C@H](CCCCN)NC(=O)[C@@H](NC(=O)[C@H]1CCC[C@@H]1NC(=O)[C@H](CC(C)C)NC(=O)[C@H](CCC(N)=O)NC(=O)[C@H](CCCCN)NC(=O)[C@H]1CNC[C@@H]1NC(=O)[C@H](CC(C)C)NC(=O)[C@H](CCCNC(=N)N)NC(=O)[C@H]1CCC[C@@H]1NC(=O)[C@H](Cc1ccc(O)cc1)NC(=O)[C@H](CC(N)=O)NC(=O)[C@H](CC(=O)O)NC(=O)[C@@H](NC(=O)[C@H](Cc1ccccc1)NC(=O)[C@@H](NC(=O)[C@H](C)NC(=O)[C@H](CC(=O)O)NC(=O)[C@H](CO)NC(=O)[C@@H](N)Cc1c[nH]cn1)C(C)C)[C@@H](C)O)C(C)C)C(=O)N[C@@H](CC(C)C)C(=O)N[C@@H](CC(N)=O)C(N)=O [Compound 8, HSDAVFTDNYXRLZKQLXVKZYLNXILN]
VIPR1; 1.03E−07 M compound
  % Activity: 91.7%
VIPR1; 1.03E−08 M compound
  % Activity: 1.5%
  Mean RLU: 13700.0 RLU
VIPR1; 1.03E−09 M compound
  % Activity: −1.4%
  Mean RLU: 13500.0 RLU
VIPR1; 1.03E−10 M compound
  % Activity: −2.9%
  Mean RLU: 9960.0 RLU
VIPR1; 1.03E−11 M compound
  % Activity: −1.5%
  Mean RLU: 10500.0 RLU
VIPR1; 1.03E−12 M compound
  % Activity: −1.7%
  Mean RLU: 10340.0 RLU
VIPR1; 5.03E−07 M compound
  % Activity: 99.5%
VIPR1; 5.03E−08 M compound
  % Activity: 83.9%
VIPR1; 5.03E−09 M compound
  % Activity: 1.2%
  Mean RLU: 13200.0 RLU
VIPR1; 5.03E−10 M compound
  % Activity: −2.2%
  Mean RLU: 9520.0 RLU
VIPR1; FIG. 3
  activation of VIPR1: fully activate VIPR1
VIPR2
  interaction with VIPR2: does not interact substantially with VIPR2
VIPR2; FIG. 3
  activation of VIPR2: not activate VIPR2

## Astressin
CRF2α
  Ki: 1.5 nM
CRF2β
  Ki: 1 nM

## VIP analogue Compound 8 (…XRLZKQLXVKZYLNXILN) (peptide)
[1]
  % Activity, cAMP agonist mode, at 1.00E-07 M (block headed Compound ID 9): 0.4%
  % Activity, cAMP agonist mode, at 1.00E-08 M (block headed Compound ID 9): 1.2%
  % Activity, cAMP agonist mode, at 1.00E-09 M (block headed Compound ID 9): 0.4%
  % Activity, cAMP agonist mode, at 1.00E-10 M (block headed Compound ID 9): -1.1%
  % Activity, cAMP agonist mode, at 1.00E-11 M (block headed Compound ID 9): 0.9%
  % Activity, cAMP agonist mode, at 1.00E-12 M (block headed Compound ID 9): 0.4%
  % Activity, cAMP agonist mode, at 5.00E-07 M (block headed Compound ID 9): 1.9%
  % Activity, cAMP agonist mode, at 5.00E-08 M (block headed Compound ID 9): 0.9%
  % Activity, cAMP agonist mode, at 5.00E-09 M (block headed Compound ID 9): 0.1%
  % Activity, cAMP agonist mode, at 5.00E-10 M (block headed Compound ID 9): 1.5%
  % Inhibition, cAMP antagonist mode against EC80 VIP, at 1.00E-07 M: 6.5%
  % Inhibition, cAMP antagonist mode against EC80 VIP, at 1.00E-08 M: 9.4%
  % Inhibition, cAMP antagonist mode against EC80 VIP, at 1.00E-09 M: 6.5%
  % Inhibition, cAMP antagonist mode against EC80 VIP, at 1.00E-10 M: 4.2%
  % Inhibition, cAMP antagonist mode against EC80 VIP, at 1.00E-11 M: 8.7%
  % Inhibition, cAMP antagonist mode against EC80 VIP, at 1.00E-12 M: 3.7%
  % Inhibition, cAMP antagonist mode against EC80 VIP, at 5.00E-07 M: 8.4%
  % Inhibition, cAMP antagonist mode against EC80 VIP, at 5.00E-08 M: 6.2%
  % Inhibition, cAMP antagonist mode against EC80 VIP, at 5.00E-09 M: 10.9%
  % Inhibition, cAMP antagonist mode against EC80 VIP, at 5.00E-10 M: 12.7%
  Mean RLU, cAMP agonist mode, at 1.00E-07 M (block headed Compound ID 9): 8920 RLU
  Mean RLU, cAMP agonist mode, at 1.00E-08 M (block headed Compound ID 9): 9560 RLU
  Mean RLU, cAMP agonist mode, at 1.00E-09 M (block headed Compound ID 9): 8560 RLU
  Mean RLU, cAMP agonist mode, at 1.00E-10 M (block headed Compound ID 9): 7560 RLU
  Mean RLU, cAMP agonist mode, at 1.00E-11 M (block headed Compound ID 9): 3280 RLU
  Mean RLU, cAMP agonist mode, at 1.00E-12 M (block headed Compound ID 9): 9300 RLU
  Mean RLU, cAMP agonist mode, at 5.00E-07 M (block headed Compound ID 9): 10200 RLU
  Mean RLU, cAMP agonist mode, at 5.00E-08 M (block headed Compound ID 9): 9200 RLU
  Mean RLU, cAMP agonist mode, at 5.00E-09 M (block headed Compound ID 9): 8560 RLU
  Mean RLU, cAMP agonist mode, at 5.00E-10 M (block headed Compound ID 9): 3920 RLU
  Mean RLU, cAMP antagonist mode against EC80 VIP, at 1.00E-07 M: 79600 RLU
  Mean RLU, cAMP antagonist mode against EC80 VIP, at 1.00E-08 M: 77500 RLU
  Mean RLU, cAMP antagonist mode against EC80 VIP, at 1.00E-09 M: 79500 RLU
  Mean RLU, cAMP antagonist mode against EC80 VIP, at 1.00E-10 M: 81300 RLU
  Mean RLU, cAMP antagonist mode against EC80 VIP, at 1.00E-11 M: 78000 RLU
  Mean RLU, cAMP antagonist mode against EC80 VIP, at 1.00E-12 M: 81700 RLU
  Mean RLU, cAMP antagonist mode against EC80 VIP, at 5.00E-07 M: 64200 RLU
  Mean RLU, cAMP antagonist mode against EC80 VIP, at 5.00E-08 M: 79500 RLU
  Mean RLU, cAMP antagonist mode against EC80 VIP, at 5.00E-09 M: 76300 RLU
  Mean RLU, cAMP antagonist mode against EC80 VIP, at 5.00E-10 M: 74900 RLU

## des-His1-{Glu9}-Glucagon (1-29) amide
Glucagon receptor
  agonist activity at the glucagon receptor: activation in rat liver membranes); displays no agonist activity. Enhances glucose-stimulated
  pA2 for inhibition of glucagon-induced adenylyl cyclase activation in rat liver membranes: (Glucagon receptor antagonist (pA2 = 7.2 for inhibition of glucagon-induced adenylyl cyclase

## HSDAVFTDNY[ACPC]RL[APC]KQL[ACPC]VK[APC]YLN[ACPC]ILN (ends and bridges not checked) [VIP analogue Compound 8 (HSDAVFTDNYXRLZKQLXVKZYLNXILN)]
[2]
  EC50, cAMP agonist mode: 28 nM

Source: US9782454B2 (LONGEVITY BIOTECH, INC., priority 2010, dated 2017)
